Data from paper PMC6434023, “A TonB-dependent transporter is required for secretion of protease PopC across the bacterial outer membrane” (Nature Communications, 2019).

Molecular target: T1, PopC expressed in E. coli (M. xanthus, UniProt Q1DFT5 1-475)
T1 construct: PopC of Myxococcus xanthus, expressed as 'native' PopC in E. coli; no tag is named; 'Native' probably means the untagged whole protein; also called native PopC; source: E. coli Rosetta-2(DE3) (WT or ΔtonB), IPTG-induced, in isolated membranes / cell fractions
T1 sequence (looked up): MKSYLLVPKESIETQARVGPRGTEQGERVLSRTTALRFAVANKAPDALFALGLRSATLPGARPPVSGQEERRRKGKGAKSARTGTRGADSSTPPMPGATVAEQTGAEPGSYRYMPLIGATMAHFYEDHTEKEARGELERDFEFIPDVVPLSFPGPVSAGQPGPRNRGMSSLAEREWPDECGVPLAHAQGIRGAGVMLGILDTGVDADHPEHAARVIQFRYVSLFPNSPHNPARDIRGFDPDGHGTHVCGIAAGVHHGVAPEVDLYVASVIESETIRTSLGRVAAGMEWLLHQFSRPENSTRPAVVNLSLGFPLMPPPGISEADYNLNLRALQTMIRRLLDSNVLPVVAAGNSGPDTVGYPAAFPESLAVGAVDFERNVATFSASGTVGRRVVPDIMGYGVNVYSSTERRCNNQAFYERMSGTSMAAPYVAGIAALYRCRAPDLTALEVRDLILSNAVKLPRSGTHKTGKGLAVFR
Assay: affinity purification with mass spectrometry; the co-IP samples (α-PopC on E. coli membranes, WT and ΔtonB) analysed by label-free quantitative MS; iBAQ ratio of Oar with PopC over without PopC, normalised to the input
Details: partners not purified

B1: Oar expressed in E. coli (natural protein, M. xanthus, UniProt P38370 27-1061, looked up)
chain: QSSTIIGTVIDAQSRQPAADVVVTATSPNLQGEQTVVTDAQGNYRIPQLPPGDYTLRFEKEQFKPYARSAIQLRLNRTIRVNVELLPEALGEVVEIVGAPPTIDVGSTTMGVNVDQEFIKRIAVARPGGKGGATRSFESLAELAPGAQNDNYGVSINGSTSPENGYVVDGLSTNDPAFGVNASPLSIEFVQDVNIITGGYMPEFGRSTGGVINAVTRSGSNEFHGSVFANWTPGTLEGTRKQIREEGTVITGQNQLQNLGDFGATLGGPILKDKLWFFAGFAPSFTRYQHTRTLNALRVDDEGNTIKDETDFTVADAIPGSARKYYADSRTIQYMGKLTYLINQDHNVSFALNGTPTSTGGLGKLSVNPQSGGLPGVLATRPGDFGLTETKANTTSLALKYAGAFADKKVLVDANLGWFHQTASTLPGDGSNLGDRTGLAGYSRMVYTTPRALTLFEALPEGQEGACGSTPEEQLVRSPVTGYGVGGPGFMSDQTLDRYQANAKATYLLNALGTHVFKAGVDVELLSFDQVKAYGGGVFFQEGSNYGVAGQGPAVHDARRYGYQTGPDSAVTQFTQVAKTTSTTVGGFLQDSWSIANRVTLNLGVRYDVQALYGGNGDLSLLLGNQWSPRIGAIVDPFANGRAKVFVNFARYYEQVPLNLMDRAFPGENRISARRSLAEPGQGTATSCDPSSFESQQATCNTDSNLLAIPESSRNVNRFYTGGTVGGTPVDPDIKAQSSDEIVVGAEYEVLANTRLGASYTHKDMNSVIEDMSRDDGNTYFLGNPGSGFAGEFPTPVRNYDNVTVYLNRTFADGWLAQANYTWSRLYGNYPGLFRPETGQLDPNILSDFDLIELLENRTGLLPFDRTHQIKVFGAKEFNISNALSASVGVSYRGSSGTPINYWGSHWAYLQDESFVLPRGAGGRTPWINTIDSNIGVNYRVSKDSVVSFTLDVFNLFNFQGVNTVDQTYTLRDIKPIPGGTPADLENLPGRVEFQDQAPRDEPFGSVDGDVNKNFKNPLSYQAPRQVRFGIRYTF
notes: Oar (MXAN_1450) of Myxococcus xanthus, expressed as 'native' Oar in E. coli; no tag is named; 'Native' probably means the untagged protein with its own signal peptide; it was found enriched in the E. coli outer membrane; also called native Oar; source: E. coli Rosetta-2(DE3) (WT or ΔtonB), IPTG-induced, in isolated membranes / cell fractions
- fold enrichment of Oar in the α-PopC co-IP, with PopC over without PopC (iBAQ ratio), WT E. coli: 4.9 fold
- fold enrichment of Oar in the α-PopC co-IP, with PopC over without PopC (iBAQ ratio), ΔtonB E. coli: 15.1 fold
